Measurements as given in the RNAGym collection of RNA variant scans (doi:10.7554/elife.80360).

B1: Twister Ribozyme (parent)
chain: AACACUGCCAAUGCCGGUCCCAAGCCCGGAUAAAAGUGGAGGGGGCGG

Variants of: B1
Assay: self-cleavage, relative activity (ratio to wild type); higher = more cleavage; co-transcriptional

Q: For AACACUGCCAAUGCCGGUCCCAAGCCCGGAUCAAAAUGGAGGGGGCGG, which self-cleavage is on record?
A: The self-cleavage was 0.473.

Q: With AACACUGCCAGUGCCAGUCCCAAGCCCGGAUAAAAGUGGAGGGGGCGG as the variant, how does the self-cleavage read?
A: Its self-cleavage is 0.627.

Q: Which self-cleavage does the source give for AACACAGCCAAUUCCGGUCCCAAGCCCGGAUAAAAGUGGAGGGGGCGG here?
A: Its self-cleavage is 0.129.

Q: For AACACUGCCAAUGCCGGUCCGAAGCCCGGAUCAAAGUGGAGGGGGCGG, which self-cleavage is on record?
A: The self-cleavage was 0.0636.

Q: For AACACUGCCUAUGCCGGUCCCAAGCCCGGAUAUAAGUGGAGGGGGCGG, which self-cleavage is on record?
A: The self-cleavage was 1.07.

Q: With AACACUGCUAAUGCCGGUCCCAAGCCCGGAUAACAGUGGAGGGGGCGG as the variant, how does the self-cleavage read?
A: The self-cleavage was 0.131.

Q: Which self-cleavage does the source give for AACACUGCCAAUGCCGGUCCCAAGCCUGGAUAAAAGUGGACGGGGCGG here?
A: The self-cleavage was 0.176.

Q: With AACACUGCCAAUGCCGGUCCCAAGCCUGGAUAAAAGUGGAAGGGGCGG as the variant, how does the self-cleavage read?
A: Its self-cleavage is 0.347.

Q: For AACACUGCCAAUGCCGGUCCCAAGCCCGGAUAAAAUUGUAGGGGGCGG, which self-cleavage is on record?
A: Its self-cleavage is 0.147.

Q: For AACACUGCCAAUGCCGGUCCCAAGCGCGGAUAAAAGUGGAGAGGGCGG, which self-cleavage is on record?
A: Its self-cleavage is 0.103.

Q: With AACUCUGCCAAUGCCGGUCCCAAACCCGGAUAAAAGUGGAGGGGGCGG as the variant, how does the self-cleavage read?
A: Its self-cleavage is 0.0658.

Q: Which self-cleavage does the source give for AACACUGCCAAUGCCGGUCCAAAGCCCGGAUAAAAUUGGAGGGGGCGG here?
A: Its self-cleavage is 0.0686.

Q: Which self-cleavage does the source give for AACACUGCCAAUGCCGGUCCCAAGCCCGGAUCAAAGUGGAGGAGGCGG here?
A: The self-cleavage was 0.242.

Q: For CACACUGCCAAUGCCGGUCCCAAGCCCGGAUAAAAGAGGAGGGGGCGG, which self-cleavage is on record?
A: Its self-cleavage is 0.148.

Q: Which self-cleavage does the source give for AACACUGCCAACGCCGGUCCCGAGCCCGGAUAAAAGUGGAGGGGGCGG here?
A: The self-cleavage was 0.307.

Q: For AACACUGCCAAUGCCGGUCCCAAGCCCUGAUACAAGUGGAGGGGGCGG, which self-cleavage is on record?
A: The self-cleavage was 0.838.

Q: With AACACUGCCAAUGCCGGUCCCAAGCCCGGAUAAUAGUGGAGGGGCCGG as the variant, how does the self-cleavage read?
A: Its self-cleavage is 0.295.

Q: With AACCCUGCCAAUGCCGGUCCCAAGCCCGGAUAAAAGUGGAGGGGGCGU as the variant, how does the self-cleavage read?
A: Its self-cleavage is 0.232.

Q: With AACACUGCCAAUGCCGGUCCCAAGCCCAGAUAAAAGUGGAGGGGACGG as the variant, how does the self-cleavage read?
A: Its self-cleavage is 0.653.

Q: For AACACUGCCAAUGCCGGUCCCAACCCCGGACAAAAGUGGAGGGGGCGG, which self-cleavage is on record?
A: Its self-cleavage is 0.108.

Q: For AACACUGCCUAUGCCGGUCCCAAGCCAGGAUAAAAGUGGAGGGGGCGG, which self-cleavage is on record?
A: Its self-cleavage is 0.645.

Q: Which self-cleavage does the source give for AACACUGCCAAUGUCGGUCCCAAGCCCGGAUACAAGUGGAGGGGGCGG here?
A: Its self-cleavage is 0.97.

Q: Which self-cleavage does the source give for AACACUGCCAAUGCCGGUCCCACGCCCGGAUAAAAGUAGAGGGGGCGG here?
A: The self-cleavage was 0.131.

Q: Which self-cleavage does the source give for AACACUGCCAAUGCGGGUCCCAAACCCGGAUAAAAGUGGAGGGGGCGG here?
A: Its self-cleavage is 0.0815.

Q: Which self-cleavage does the source give for UACACUGCCAAUGCCGGUCCCAAGCCCGGAUAAAAGUGGAGGCGGCGG here?
A: The self-cleavage was 0.0749.

Q: For AACACUGCCAAUGCCGGUCCCAAGCCCGGUUAAAAGUGGAGGAGGCGG, which self-cleavage is on record?
A: Its self-cleavage is 0.278.

Q: Which self-cleavage does the source give for CACACUGCCAAUGCCGGUCCCAAGCCCGGAUAAAAGUGGAGUGGGCGG here?
A: Its self-cleavage is 0.169.

Q: Which self-cleavage does the source give for AACACUGCCUAUGCCGGUCCCAAGCCCGGAUAAAAGUCGAGGGGGCGG here?
A: The self-cleavage was 0.933.

Q: Which self-cleavage does the source give for AACACUGCCAAUCCCGGUCCCCAGCCCGGAUAAAAGUGGAGGGGGCGG here?
A: Its self-cleavage is 0.71.

Q: For AACACUGCCAAUGUCGGUCCCAAGCCCGGAUAAAAGUGGCGGGGGCGG, which self-cleavage is on record?
A: Its self-cleavage is 0.256.

Q: Which self-cleavage does the source give for AACACUGCCAAUGCCUGUCCCAAGCCCGGAUAGAAGUGGAGGGGGCGG here?
A: The self-cleavage was 0.597.

Q: Which self-cleavage does the source give for AAAACUGCCAAUGCCGGCCCCAAGCCCGGAUAAAAGUGGAGGGGGCGG here?
A: The self-cleavage was 0.0738.

Q: With AACACUGCCAUUGCCGAUCCCAAGCCCGGAUAAAAGUGGAGGGGGCGG as the variant, how does the self-cleavage read?
A: Its self-cleavage is 0.497.

Q: With AACACUGCCAAUGCCGGUCCCAAGCCCGGAUAGAAGUGGCGGGGGCGG as the variant, how does the self-cleavage read?
A: Its self-cleavage is 0.17.

Q: For AACACUCCCAAUGCCGGUCCCAAGCUCGGAUAAAAGUGGAGGGGGCGG, which self-cleavage is on record?
A: The self-cleavage was 0.0512.

Q: With AACACUGCAAAUGCCGGUCCCAAGCCCGAAUAAAAGUGGAGGGGGCGG as the variant, how does the self-cleavage read?
A: Its self-cleavage is 0.627.

Q: For AACACUGACAAUGCCGGUCCCAAGCCGGGAUAAAAGUGGAGGGGGCGG, which self-cleavage is on record?
A: Its self-cleavage is 0.0579.

Q: Which self-cleavage does the source give for AACACUGCCAAUGCCGGUCCCAAGCACGGAUAAAAGUGGAGGGGGGGG here?
A: The self-cleavage was 0.358.

Q: With AACCCUGCCAAUGCCGGUCCCCAGCCCGGAUAAAAGUGGAGGGGGCGG as the variant, how does the self-cleavage read?
A: Its self-cleavage is 0.0993.

Q: Which self-cleavage does the source give for AACACUGCCAAUGCCGGUCCCAGGCCCGGACAAAAGUGGAGGGGGCGG here?
A: Its self-cleavage is 0.544.

Q: With AACACUGCCAAUGCCGGUCCCAAGCCCCGAUAAAACUGGAGGGGGCGG as the variant, how does the self-cleavage read?
A: The self-cleavage was 0.173.

Q: For AACACUGCCAAUGACGGUCCCAAGCCCGGAUAAAAGUGGAGGAGGCGG, which self-cleavage is on record?
A: The self-cleavage was 0.309.

Q: Which self-cleavage does the source give for AACACUACCAAUGCCGGUCCCAAGCCCGGAUAAAAGUGGAGGGGGUGG here?
A: Its self-cleavage is 0.579.

Q: For AACACUGCCAAUGCCGGUCCCAAGCCUGGAAAAAAGUGGAGGGGGCGG, which self-cleavage is on record?
A: The self-cleavage was 0.792.

Q: For AACACUGCCAAUGCCGGUCCAAAGCCCGGAUAACAGUGGAGGGGGCGG, which self-cleavage is on record?
A: Its self-cleavage is 0.0648.

Q: For AAGACUGCCAAUGCCGGUCCCAAGCCCGGAUAAAAGUGGAGGGGUCGG, which self-cleavage is on record?
A: The self-cleavage was 0.31.

Q: For AACACUGCCAAUGCCAGUCCCAAACCCGGAUAAAAGUGGAGGGGGCGG, which self-cleavage is on record?
A: Its self-cleavage is 0.0954.

Q: Which self-cleavage does the source give for AACACUGCCAAUGCCGGUCCCAAGCCCGGAGAAAAGUCGAGGGGGCGG here?
A: Its self-cleavage is 0.894.

Q: With AACACUGCCCAUGCCGGGCCCAAGCCCGGAUAAAAGUGGAGGGGGCGG as the variant, how does the self-cleavage read?
A: The self-cleavage was 0.0601.

Q: Which self-cleavage does the source give for AACACUGCCAAUGCAGGUCCCUAGCCCGGAUAAAAGUGGAGGGGGCGG here?
A: Its self-cleavage is 0.24.

Q: With AACACUGCCAAUGCGGGUCCCAAGCCCGGAUAAAAGUGGAGGGAGCGG as the variant, how does the self-cleavage read?
A: Its self-cleavage is 0.0802.

Q: For GACACUGCCAAUGCCGGUCGCAAGCCCGGAUAAAAGUGGAGGGGGCGG, which self-cleavage is on record?
A: The self-cleavage was 0.134.

Q: With AAUACUGCCAAUGCCGGUCCCAAUCCCGGAUAAAAGUGGAGGGGGCGG as the variant, how does the self-cleavage read?
A: The self-cleavage was 0.0933.

Q: Which self-cleavage does the source give for AACACUGCGAAUGCCGGUCCCAAGCCCGGAUAAAAGUGGAGUGGGCGG here?
A: Its self-cleavage is 0.119.
